Measurements from PMC3115796 (The Journal of Cell Biology, 2011).
Each block holds one binder with its values, some of them ahead of it.

Tests used:
BioGFP-SLAIN2 = BioGFP-SLAIN2 (human, UniProt Q9P270 1-581, biotin (substrate linker of the biotin ligase BirA, co-expressed)); test: pull-down
CLIPCG12 = target: T1, CLIPCG12 (human, UniProt P30622 48-300); test: ITC
T1 sequence: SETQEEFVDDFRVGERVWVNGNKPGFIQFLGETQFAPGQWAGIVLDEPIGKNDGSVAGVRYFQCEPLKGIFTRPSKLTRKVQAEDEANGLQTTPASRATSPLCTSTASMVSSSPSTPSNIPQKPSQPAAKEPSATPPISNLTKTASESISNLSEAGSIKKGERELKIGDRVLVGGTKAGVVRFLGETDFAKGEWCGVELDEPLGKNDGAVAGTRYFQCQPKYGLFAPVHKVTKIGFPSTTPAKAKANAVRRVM

SEC-MALS = target: the molecule itself; test: SEC-MALS

binding result (BioGFP-SLAIN2): binds
B1: GST–CLIP-170-N (domain or fragment)
chain: MSMLKPSGLKAPTKILKPGSTALKTPAAAAAPLEKTVPSEKASGPPSSETQEEFVDDFRVGERVWVNGNKPGFIQFLGETQFAPGQWAGIVLDEPIGKNDGSVAGVRYFQCEPLKGIFTRPSKLTRKVQAEDEANGLQTAHARAASPLSTAAATMVSSSPATPSNIPQKPSQPVAKETSATPQISNLTKTASESISNLSEAGSVKKGERELKIGDRVLVGGTKAGVVRFLGETDFAKGEWCGVELDEPLGKNDGAVAGTRYFQCQPKYGLFAPVHKVTKIGFPSTTPAKAKAAAVRRVMATTPASLKRSP

stoichiometry N (CLIPCG12): 2
Binder: GSMKDDSWKDGCY [SLAIN2c]

B2: SLAIN2 N-terminal fragment (residues 1–43) (domain or fragment)
chain: not shown
stoichiometry N (SEC-MALS): 2
